Measured values reported in article PMC10092196 (Human Mutation, 2022).
Residue numbers refer to the chain shown, from its start. Names may count otherwise.

How the values were obtained:
SEC = molecular target: the molecule itself; test: SEC
[1] = molecular target: the molecule itself; test: SEC with right-angle light scattering

B1: full-length wild-type human PUS3 protein (pseudouridine synthase 3) (enzyme, UniProt Q9BZE2 1-481, looked up)
chain: MAYNDTDRNQTEKLLKRVRELEQEVQRLKKEQAKNKEDSNIRENSAGAGKTKRAFDFSAHGRRHVALRIAYMGWGYQGFASQENTNNTIEEKLFEALTKTRLVESRQTSNYHRCGRTDKGVSAFGQVISLDLRSQFPRGRDSEDFNVKEEANAAAEEIRYTHILNRVLPPDIRILAWAPVEPSFSARFSCLERTYRYFFPRADLDIVTMDYAAQKYVGTHDFRNLCKMDVANGVINFQRTILSAQVQLVGQSPGEGRWQEPFQLCQFEVTGQAFLYHQVRCMMAILFLIGQGMEKPEIIDELLNIEKNPQKPQYSMAVEFPLVLYDCKFENVKWIYDQEAQEFNITHLQQLWANHAVKTHMLYSMLQGLDTVPVPCGIGPKMDGMTEWGNVKPSVIKQTSAFVEGVKMRTYKPLMDRPKCQGLESRIQHFVRRGRIEHPHLFHEEETKAKRDCNDTLEEENTNLETPTKRVCVDTEIKSII
SEC
  stoichiometry N: 2

B2: full-length human PUS3 D118A mutant (catalytic site) (enzyme, UniProt Q9BZE2 1-481, looked up)
chain: B1 chain with D118A
SEC
  binding result: binds

B3: full-length human PUS3 Y71C mutant (enzyme, UniProt Q9BZE2 1-481, looked up)
chain: B1 chain with Y71C
[1]
  stoichiometry N: 2
